{"source": "paper PMC9429925", "about": "“Tight Complex Formation of the Fumarate Sensing DcuS-DcuR Two-Component System at the Membrane and Target Promoter Search by Free DcuR Diffusion” (mSphere, 2022)", "binders": {"B1": {"name": "phosphorylated PASC-Kin (PASC-Kin-P) (domain or fragment, E. coli, UniProt P0AEC8 212-539, looked up)", "chain": "LEPYEISTLFEQRQAMLQSIKEGVVAVDDRGEVTLINDAAQELLNYRKSQDDEKLSTLSHSWSQVVDVSEVLRDGTPRRDEEITIKDRLLLINTVPVRSNGVIIGAISTFRDKTEVRKLMQRLDGLVNYADALRERSHEFMNKLHVILGLLHLKSYKQLEDYILKTANNYQEEIGSLLGKIKSPVIAGFLISKINRATDLGHTLILNSESQLPDSGSEDQVATLITTLGNLIENALEALGPEPGGEISVTLHYRHGWLHCEVNDDGPGIAPDKIDHIFDKGVSTKGSERGVGLALVKQQVENLGGSIAVESEPGIFTQFFVQIPWDGE", "modifications": "phosphorylated by autophosphorylation with ATP; phosphorylation site His349", "notes": "cytoplasmic part of E. coli DcuS, residues 212-539, autophosphorylated with ATP; source: E. coli BL21(DE3), purified (Ni-NTA agarose), then incubated with 1 mM ATP; not shown: His6, N-terminal, kept"}, "B2": {"name": "His6-PASc-Kin (DcuS [AS 212-539]) (domain or fragment, E. coli, UniProt P0AEC8 212-539, looked up)", "chain": "LEPYEISTLFEQRQAMLQSIKEGVVAVDDRGEVTLINDAAQELLNYRKSQDDEKLSTLSHSWSQVVDVSEVLRDGTPRRDEEITIKDRLLLINTVPVRSNGVIIGAISTFRDKTEVRKLMQRLDGLVNYADALRERSHEFMNKLHVILGLLHLKSYKQLEDYILKTANNYQEEIGSLLGKIKSPVIAGFLISKINRATDLGHTLILNSESQLPDSGSEDQVATLITTLGNLIENALEALGPEPGGEISVTLHYRHGWLHCEVNDDGPGIAPDKIDHIFDKGVSTKGSERGVGLALVKQQVENLGGSIAVESEPGIFTQFFVQIPWDGE", "notes": "cytoplasmic part of E. coli DcuS (Linker, PASC and kinase domains), residues 212-539; unphosphorylated; pET28a derivative; homodimer by SEC (Mr 84 kDa, monomer 40.4 kDa); also called His6-PASc-Kinase; 6His-PASc-Kinase; source: E. coli BL21(DE3), purified (Ni-NTA agarose); not shown: His6, N-terminal, kept"}}, "key": {"T25-DcuR": {"target": "T1, T25-DcuR (E. coli, UniProt P0AD01 1-239)", "T1 construct": "response regulator DcuR of E. coli (REC and HTH domains); also called DcuR-fusion; source: bacterial two-hybrid (BACTH) fusion in E. coli BTH101; not shown: T25 domain of Bordetella pertussis adenylate cyclase, N-terminal, kept", "T1 sequence (looked up)": "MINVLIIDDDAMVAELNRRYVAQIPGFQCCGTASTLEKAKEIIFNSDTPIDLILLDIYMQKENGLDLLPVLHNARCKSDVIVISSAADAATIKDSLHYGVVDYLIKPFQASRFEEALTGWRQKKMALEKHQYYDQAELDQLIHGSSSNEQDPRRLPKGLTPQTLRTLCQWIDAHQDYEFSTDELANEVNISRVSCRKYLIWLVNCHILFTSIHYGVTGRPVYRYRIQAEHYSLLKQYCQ", "experiment": "two-hybrid; bacterial two-hybrid BACTH in E. coli BTH101 (ΔcyaA); T25 N-terminally on DcuR, T18 C-terminally on DcuS or PASC-Kin; β-galactosidase activity in Miller units; wild-type pair also with fumarate", "conditions": "partners not purified"}, "[1]": {"target": "the molecule itself", "experiment": "SEC; mixtures of PASC-Kin and DcuR (phosphate-free or phosphorylated), molar ratios 1:1.44, 1:2, 1:1.4 with PASC-Kin at 40.4 μM (also 1:0.2, 1:5, 1:10 for PASC-Kin-P and DcuR); HiLoad 16/600 Sephadex 200; peak fractions analysed by SDS-PAGE and quantified with ImageJ"}, "His6-DcuR": {"target": "T2, His6-DcuR (E. coli, UniProt P0AD01 1-239)", "T2 construct": "response regulator DcuR of E. coli; unphosphorylated; also called DcuR-6His; source: E. coli BL21(DE3), purified (Ni-NTA agarose)", "T2 sequence (looked up)": "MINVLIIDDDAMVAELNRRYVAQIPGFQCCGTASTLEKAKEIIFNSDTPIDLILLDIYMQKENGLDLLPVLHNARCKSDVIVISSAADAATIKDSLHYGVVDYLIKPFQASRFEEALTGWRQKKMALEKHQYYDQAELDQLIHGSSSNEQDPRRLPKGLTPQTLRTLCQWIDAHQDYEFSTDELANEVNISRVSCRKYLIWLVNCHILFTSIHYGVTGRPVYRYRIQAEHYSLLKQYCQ", "experiment": "SEC; mixtures of PASC-Kin and DcuR (phosphate-free or phosphorylated), molar ratios 1:1.44, 1:2, 1:1.4 with PASC-Kin at 40.4 μM (also 1:0.2, 1:5, 1:10 for PASC-Kin-P and DcuR); HiLoad 16/600 Sephadex 200; peak fractions analysed by SDS-PAGE and quantified with ImageJ", "conditions": "both partners purified"}, "[2]": {"target": "the molecule itself", "experiment": "SEC; each protein alone on HiLoad 16/600 Sephadex 200; His6-PASc-Kinase 45 μM, DcuR 55 μM; 50 mM Tris-HCl, 1 mM DTT, 50 mM KCl, 5 mM MgCl2, pH 7.7, 25°C; Mr by calibration with protein standards"}, "T25-DcuR(D56N)": {"target": "T3, T25-DcuR(D56N) (E. coli, UniProt P0AD01 1-239, D56N)", "T3 construct": "E. coli DcuR, as pMW427 (T25-DcuR) with the phosphorylation site Asp56 changed to Asn; source: bacterial two-hybrid (BACTH) fusion in E. coli BTH101; not shown: T25 domain of Bordetella pertussis adenylate cyclase, N-terminal, kept", "T3 sequence (looked up)": "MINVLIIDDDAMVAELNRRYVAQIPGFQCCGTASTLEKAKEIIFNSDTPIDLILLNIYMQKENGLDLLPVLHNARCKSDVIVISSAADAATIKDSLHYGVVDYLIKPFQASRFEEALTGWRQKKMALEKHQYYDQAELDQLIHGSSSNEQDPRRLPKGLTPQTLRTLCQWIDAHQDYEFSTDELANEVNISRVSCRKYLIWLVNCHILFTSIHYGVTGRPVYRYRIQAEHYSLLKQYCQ", "experiment": "two-hybrid; bacterial two-hybrid BACTH in E. coli BTH101 (ΔcyaA); T25 N-terminally on DcuR, T18 C-terminally on DcuS or PASC-Kin; β-galactosidase activity in Miller units; wild-type pair also with fumarate", "conditions": "partners not purified"}, "[3]": {"target": "B1", "experiment": "MST; eYFP-L-DcuR at 0.1 μM, His6-PASC-Kin titrated from 10^-1 to 2 x 10^4 nM; Tris/HCl pH 7.7, 10 mM MgCl2, 2 mM DTT; 25°C; Monolith NT.115; 1:1 binding model; Kd refers to monomer concentrations", "conditions": "both partners purified"}, "[4]": {"target": "B2", "experiment": "MST; eYFP-L-DcuR at 0.1 μM, His6-PASC-Kin titrated from 10^-1 to 2 x 10^4 nM; Tris/HCl pH 7.7, 10 mM MgCl2, 2 mM DTT; 25°C; Monolith NT.115; 1:1 binding model; Kd refers to monomer concentrations", "conditions": "both partners purified"}}, "data": [{"binder": "PASC-Kin(H349A)-T18 (domain or fragment, E. coli, UniProt P0AEC8 211-539, looked up, cytoplasmic part of E. coli DcuS, as pMW1076 [DcuS(211-539)] with H349A; source: bacterial two-hybrid (BACTH) fusion in E. coli BTH101; not shown: T18 domain of Bordetella pertussis adenylate cyclase, C-terminal, kept) GLEPYEISTLFEQRQAMLQSIKEGVVAVDDRGEVTLINDAAQELLNYRKSQDDEKLSTLSHSWSQVVDVSEVLRDGTPRRDEEITIKDRLLLINTVPVRSNGVIIGAISTFRDKTEVRKLMQRLDGLVNYADALRERSAEFMNKLHVILGLLHLKSYKQLEDYILKTANNYQEEIGSLLGKIKSPVIAGFLISKINRATDLGHTLILNSESQLPDSGSEDQVATLITTLGNLIENALEALGPEPGGEISVTLHYRHGWLHCEVNDDGPGIAPDKIDHIFDKGVSTKGSERGVGLALVKQQVENLGGSIAVESEPGIFTQFFVQIPWDGE", "values": [{"measurement": "% of wild-type BACTH activity", "setting": "T25-DcuR", "value": 108, "unit": "%"}]}, {"binder": "B1", "values": [{"measurement": "binding result", "setting": "[1]", "value": "binds"}, {"measurement": "stoichiometry N", "setting": "His6-DcuR", "value": 0.86, "unit": "mol DcuR/mol PASC-Kin"}]}, {"binder": "B2", "values": [{"measurement": "stoichiometry N", "setting": "[2]", "value": 2}]}, {"binder": "DcuS-T18 (natural protein, E. coli, UniProt P0AEC8 1-543, looked up, membrane-integral C4-dicarboxylate sensor kinase DcuS of E. coli, full length; also called full-length DcuS; DcuS-fusion; source: bacterial two-hybrid (BACTH) fusion in E. coli BTH101; not shown: T18 domain of Bordetella pertussis adenylate cyclase, C-terminal, kept) MRHSLPYRMLRKRPMKLSTTVILMVSAVLFSVLLVVHLIYFSQISDMTRDGLANKALAVARTLADSPEIRQGLQKKPQESGIQAIAEAVRKRNDLLFIVVTDMQSLRYSHPEAQRIGQPFKGDDILKALNGEENVAINRGFLAQALRVFTPIYDENHKQIGVVAIGLELSRVTQQINDSRWSIIWSVLFGMLVGLIGTCILVKVLKKILFGLEPYEISTLFEQRQAMLQSIKEGVVAVDDRGEVTLINDAAQELLNYRKSQDDEKLSTLSHSWSQVVDVSEVLRDGTPRRDEEITIKDRLLLINTVPVRSNGVIIGAISTFRDKTEVRKLMQRLDGLVNYADALRERSHEFMNKLHVILGLLHLKSYKQLEDYILKTANNYQEEIGSLLGKIKSPVIAGFLISKINRATDLGHTLILNSESQLPDSGSEDQVATLITTLGNLIENALEALGPEPGGEISVTLHYRHGWLHCEVNDDGPGIAPDKIDHIFDKGVSTKGSERGVGLALVKQQVENLGGSIAVESEPGIFTQFFVQIPWDGERSNR", "values": [{"measurement": "% of wild-type BACTH activity", "setting": "T25-DcuR(D56N)", "value": 94, "unit": "%"}]}, {"binder": "DcuS(H349A)-T18 (natural protein, E. coli, UniProt P0AEC8 1-543, looked up, E. coli DcuS, as pMW428 (full-length DcuS-T18) with the phosphorylation site His349 changed to Ala; source: bacterial two-hybrid (BACTH) fusion in E. coli BTH101; not shown: T18 domain of Bordetella pertussis adenylate cyclase, C-terminal, kept) MRHSLPYRMLRKRPMKLSTTVILMVSAVLFSVLLVVHLIYFSQISDMTRDGLANKALAVARTLADSPEIRQGLQKKPQESGIQAIAEAVRKRNDLLFIVVTDMQSLRYSHPEAQRIGQPFKGDDILKALNGEENVAINRGFLAQALRVFTPIYDENHKQIGVVAIGLELSRVTQQINDSRWSIIWSVLFGMLVGLIGTCILVKVLKKILFGLEPYEISTLFEQRQAMLQSIKEGVVAVDDRGEVTLINDAAQELLNYRKSQDDEKLSTLSHSWSQVVDVSEVLRDGTPRRDEEITIKDRLLLINTVPVRSNGVIIGAISTFRDKTEVRKLMQRLDGLVNYADALRERSAEFMNKLHVILGLLHLKSYKQLEDYILKTANNYQEEIGSLLGKIKSPVIAGFLISKINRATDLGHTLILNSESQLPDSGSEDQVATLITTLGNLIENALEALGPEPGGEISVTLHYRHGWLHCEVNDDGPGIAPDKIDHIFDKGVSTKGSERGVGLALVKQQVENLGGSIAVESEPGIFTQFFVQIPWDGERSNR", "values": [{"measurement": "% of wild-type BACTH activity", "setting": "T25-DcuR", "value": 94, "unit": "%"}]}, {"binder": "eYFP-L-DcuR (natural protein, E. coli, UniProt P0AD01 1-239, looked up, response regulator DcuR of E. coli, joined genetically to eYFP by a short linker; unphosphorylated; The His6 tag is printed at the N-terminus and at the C-terminus in the same paragraph; also called eYfp-Linker-DcuR; His6-eYfp-Linker-DcuR; source: E. coli BL21(DE3), purified (Ni-NTA agarose)) MINVLIIDDDAMVAELNRRYVAQIPGFQCCGTASTLEKAKEIIFNSDTPIDLILLDIYMQKENGLDLLPVLHNARCKSDVIVISSAADAATIKDSLHYGVVDYLIKPFQASRFEEALTGWRQKKMALEKHQYYDQAELDQLIHGSSSNEQDPRRLPKGLTPQTLRTLCQWIDAHQDYEFSTDELANEVNISRVSCRKYLIWLVNCHILFTSIHYGVTGRPVYRYRIQAEHYSLLKQYCQ", "values": [{"measurement": "Kd", "setting": "[3]", "value": 22, "unit": "nM"}, {"measurement": "Kd", "setting": "[4]", "value": 1380, "unit": "nM"}]}, {"binder": "eYFP-L-DcuR-P (natural protein, E. coli, UniProt P0AD01 1-239, looked up, phosphorylated with carbamoyl phosphate; phosphorylation site Asp56 of DcuR, response regulator DcuR of E. coli, joined genetically to eYFP by a short linker, phosphorylated with carbamoyl phosphate; also called eYFP-DcuR~P; source: E. coli BL21(DE3), purified (Ni-NTA agarose), then incubated with 50 mM carbamoyl phosphate) MINVLIIDDDAMVAELNRRYVAQIPGFQCCGTASTLEKAKEIIFNSDTPIDLILLDIYMQKENGLDLLPVLHNARCKSDVIVISSAADAATIKDSLHYGVVDYLIKPFQASRFEEALTGWRQKKMALEKHQYYDQAELDQLIHGSSSNEQDPRRLPKGLTPQTLRTLCQWIDAHQDYEFSTDELANEVNISRVSCRKYLIWLVNCHILFTSIHYGVTGRPVYRYRIQAEHYSLLKQYCQ", "values": [{"measurement": "Kd", "setting": "[4]", "value": 28, "unit": "nM"}]}]}
